Measured values taken from patent US20110262929A1 (FORERUNNER PHARMA RESEARCH, published 2011).

Experiments:
[1] = biological target: T1, secreted HS6ST2 (sHS6ST2_FLAG) (human, UniProt Q96MM7 170-605); assay: sandwich ELISA: A6 coated at 5 µg/mL as capture, B5-biotin and C8-biotin (3 µg/mL each, mixed) as detectors
T1 construct: Purified from CHO supernatant on anti-FLAG gel; also called soluble HS6ST2
T1 sequence: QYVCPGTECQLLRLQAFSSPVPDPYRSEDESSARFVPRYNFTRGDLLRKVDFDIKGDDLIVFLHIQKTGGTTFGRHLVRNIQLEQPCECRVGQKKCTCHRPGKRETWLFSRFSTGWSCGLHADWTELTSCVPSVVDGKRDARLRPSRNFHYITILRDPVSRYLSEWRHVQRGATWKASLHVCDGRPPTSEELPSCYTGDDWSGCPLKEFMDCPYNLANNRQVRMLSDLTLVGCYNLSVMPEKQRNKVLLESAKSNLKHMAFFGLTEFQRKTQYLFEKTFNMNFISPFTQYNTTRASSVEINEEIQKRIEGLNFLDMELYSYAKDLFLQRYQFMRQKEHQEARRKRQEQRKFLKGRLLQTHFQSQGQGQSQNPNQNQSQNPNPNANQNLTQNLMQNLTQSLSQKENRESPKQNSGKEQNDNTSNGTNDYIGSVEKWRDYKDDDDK

[2] = biological target: T2, GST_HS6ST2_C1 (human, UniProt Q96MM7 454-539); assay: Western blot of E. coli whole cell lysate, antibody 10 µg/mL
T2 construct: Expressed in E. coli BL21 (DE3); whole cell lysate blotted after SDS-PAGE; also called GST fusion of amino acids 308-393 of HS6ST2_N-short; not shown: N-terminal glutathione S-transferase (GST) of vector pGEX-6P-1, with the vector's linker
T2 sequence: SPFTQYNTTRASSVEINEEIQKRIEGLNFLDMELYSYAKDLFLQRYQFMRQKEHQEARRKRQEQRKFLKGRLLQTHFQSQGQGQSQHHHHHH
Experimental: (§1) GST_HS6ST2_N, GST_HS6ST2_mid, GST_HS6ST2_C, GST_HS6ST2_C1 and GST_HS6ST2_C2 were expressed in BL21 (DE3) Competent Cells (Takara Bio), and the whole cell lysates were resolved by SDS-PAGE electrophoresis and then transferred to PVDF membranes (Immobilon-P, Millipore) and Western blotted with the anti-HS6ST2 antibodies. The anti-HS6ST2 antibodies were used at 10 μg/mL, while the secondary antibody (HRP-anti mIgG, GE Healthcare) was used as a 3000-fold dilution, and blots were detected with ECL Western Blotting Detection Reagents (GE Healthcare). As a result, the anti-HS6ST2 antibodies A1, A10, B5, B6 and C8 bound to GST_HS6ST2_C2, A6 bound to GST_HS6ST2_C1, and C10 bound to GST_HS6ST2_N.

[3] = biological target: T1, secreted HS6ST2 (sHS6ST2_FLAG); assay: flow cytometry: sHS6ST2_FLAG (50 µg/mL) held on heparan sulfate of DG44 cells, detected with C8 as primary antibody
Experimental: Each anti-HS6ST2 antibody or mouse IgG1 (mIgG1, BD Biosciences Pharmingen) as a negative control was added to a final concentration of 2 μg/mL into 96-well U-bottom plates (Becton Dickinson) containing 5×10⁴ cells suspended in PBS (FACS buffer) supplemented with 0.5% bovine serum albumin and 0.1% NaN₃. After reaction on ice for 1 hour, the cells were washed with FACS buffer. Then, an FITC-labeled anti-mouse antibody (Goat F(ab′)₂ Fragment Anti-mouse IgG (H+L)-FITC, Beckman Coulter) was added as a secondary antibody, and the mixture was reacted on ice for 1 hour. The cells were washed with FACS buffer, and then suspended in FACS buffer containing 10 μg/mL propidium iodide (PI) (Sigma) and assayed by a flow cytometer (FACS Calibur, Becton Dickinson). The assay data were analyzed by CELLQuest software (Becton Dickinson), and the geo-mean of FITC fluorescent intensity was calculated for the PI-negative population of viable cells.
Then, binding of soluble HS6ST2 (sHS6ST2_FLAG) to DG44 cells was evaluated. DG44 cells were enzymatically treated, and then reacted with sHS6ST2_FLAG prepared at 50 μg/mL in FACS buffer at 4° C. for 3 hours. After washing, the cells were analyzed by flow cytometry in the same manner as in Example 3. The anti-HS6ST2 antibody C8 was used as a primary antibody and mIgG1 (BD Biosciences Pharmingen) was used as a negative control. […]

[4] = biological target: T3, GST_HS6ST2_C2 (human, UniProt Q96MM7 525-605); assay: Western blot of E. coli whole cell lysate, antibody 10 µg/mL
T3 construct: Expressed in E. coli BL21 (DE3); whole cell lysate blotted after SDS-PAGE; also called GST fusion of amino acids 379-459 of HS6ST2_N-short; not shown: N-terminal glutathione S-transferase (GST) of vector pGEX-6P-1, with the vector's linker
T3 sequence: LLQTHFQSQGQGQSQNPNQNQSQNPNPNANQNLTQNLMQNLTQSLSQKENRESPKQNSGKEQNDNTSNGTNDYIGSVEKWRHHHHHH
Experimental: as §1

B1: anti-HS6ST2 antibody A6 (antibody, mouse IgG1, V domains shown)
VH: EVQLQQSGAELVRSGASVKLSCTASGFNIKDYYMHWVKQRPEQGLEWIGWIDPENDDTEYAPKFQGRATMTADTSSNTAYLQLSSLTSEDTAVYYCNAGYYGSGFAYWGQGTLVTVSA
VL: DIVMTQSPSSLTVTAGEKVTMRCKSSQSLLNSGNQKNYLTWYQQKPGQPPRLLIYWASIRESGVPDRFTGSGSGTDFTLTISSVQAEDLAVYYCQNDYSYPLTFGTGTKLELK
notes: also called clone A6
B1: binds [1]; binds [2].

B2: anti-HS6ST2 antibody C8 (antibody, mouse IgG1, V domains shown)
VH: EVQLQQSGAELVRSGASVKLSCTASGFNIKDYYMHWVKQRPEQGLEWIGWIDPDNDDTEYAPKFQGKATMTADTSSNTAYLQLSSLTSEDTAVYYCNAGNGNYWFAYWGQGTLVTVSA
VL: DVVMTQTPLSLPVSLGDQASISCRSSQSLVHSNGNTYLHWNLQKPGQSPKLLIYKVSNRFSGVPDRFSGSGSGTDFTLKISRVEAEDLGVYFCSQTTLVPYTFGGGTKLEIK
notes: also called clone C8; C8-biotin
B2: binds [3]; binds [4].
